From paper PMC13648279

Experiments:
[1] = target: MbTEC^PH (R28E) (Monosiga brevicollis MX1); assay: FP; conditions: domain or fragment
[2] = target: MbTEC^PH (R28E) (Monosiga brevicollis MX1); assay: fluorescence polarisation; fluorescence anisotropy; MbTEC^32K constructs serially diluted into 200 nM Atto488-labelled PH domain; 20 mM HEPES pH 7.4, 150 mM NaCl, 2% glycerol, 1 mM TCEP; 21 °C; one-site binding model
[3] = target: MbTEC^PH (PH domain of Monosiga brevicollis TEC, residues 1-174), labelled with Atto488 (Monosiga brevicollis MX1); assay: as above
[4] = target: MbTEC^PH (PH domain of Monosiga brevicollis TEC, residues 1-174), labelled with Atto488; assay: fluorescence anisotropy; conditions: parent: 4.0 ± 1.3 µM

## MbTEC^32K (SH3-SH2-kinase module of Monosiga brevicollis TEC, residues 229-667)
[1]
  Kd: 22.4 µM

## MbTEC^32K (SH3-SH2-kinase module of Monosiga brevicollis TEC, residues 229-667) (domain or fragment)
[2]
  fold weakening of binding against wild-type MbTEC^PH: 5 fold
[3]
  Kd: 4 µM

## MbTEC^32K (SH3-SH2-kinase module of Monosiga brevicollis TEC, residues 229-667) Y579D; R581E
[4]
  Kd: 195 µM
